Reference: patent publication CN117836322A (PASTEUR INSTITUT, dated 2024)
Values joined by “and” are separate entries in the source; they are usually repeats but may differ in a detail not shown here. Identical values can stand only once.

B1: Cv2.1169 IgG1 (antibody, V domains shown)
VH: QVQLVQSGPEVKKPGTSVKVSCKASGFTFTTSAVQWVRQARGQRLEWIGWIVVGSGNTNYAQKFQERVTITRDMSTTTAYMELSSLRSEDTAVYYCAAPYCSGGTCLDGFDIWGQGTMVTVSS
VL: not shown
B2: Cv2.3194 IgG1 (antibody, V domains shown)
VH: EVQLVESGGGLIQPGGSLRLSCAASGITVTSNYMSWVRQAPGKGLEWVSVIYPGGSTFYADSVKGRFTISRDNSKNTLYLQMNSLRAEDTAVYYCARDLVVYGMDVWGQGTTVTVSS
VL: EIVLTQSPGTLSLSPGERATLSCRASQSVSSSYLAWYQQKPGQAPRLLIYGASSRATGIPGRFSGSGSGTDFTLTISRLEPEDFAIYYCQQGVTFGGGTKVEIKR

What was measured:
[1] = target: SARS-CoV-2 Delta (δ, B.1.617.2) spike on virus (SARS-CoV-2); test: cell-based or functional assay
[2] = target: SARS-CoV-2 Omicron BA.1 spike on virus (SARS-CoV-2); test: cell-based or functional assay

Binder	IC50 (S-融合测定) [1] [µg/mL]	IC50 (S-融合测定) [2]	IC50 (中和) [2] [µg/mL]
B1	0.00446	0.253 µg/mL and 0.212 µg/mL	~0.25
B2		0.0242 µg/mL	
